Experimental findings from article PMC2970552, “Structural Studies of the Tandem Tudor Domains of Fragile X Mental Retardation Related Proteins FXR1 and FXR2” (PLoS ONE, 2010) are described below.

One experiment concerns the target FXR2 Tudor domains (Homo sapiens, UniProt P51116). Description: Fluorescence polarization binding of histone peptides to FXR2 tandem Tudor domains. Conditions: bound printed in mM in the cell, fluoresceinated peptide 100 nM, 20 mM Tris-Cl pH 8.0, 50 mM NaCl, 1 mM DTT, 30 min room temperature. In general terms: In fluorescence polarisation assays a small probe gives low polarisation when free and higher when bound to something large.

A further experiment deals with FXR1 Tudor domains (Homo sapiens, UniProt P51114). Description: Fluorescence polarization binding of histone peptides to FXR1 tandem Tudor domains. Conditions: bound printed in mM in the cell, fluoresceinated peptide 100 nM, 20 mM Tris-Cl pH 8.0, 50 mM NaCl, 1 mM DTT, 30 min room temperature.
Experiment [1] concerns the target T1, FXR1 tandem Tudor domains (amino acids 2 to 132 of Fragile X Mental Retardation Syndrome-related Protein 1) (UniProt P51114 2-132).
T1 construct: Fragile X Mental Retardation Syndrome-related Protein 1 (FXR1), amino acids 2 to 132, tandem Tudor domains; residues 4 to 122 seen in the crystal structure; Cloned in pET-28a-MHL as His6-TEV-FXR1; The methods describe expression in minimal media with selenomethionine; also called FXR1 Tudor domains; NLS of FXR1; source: E. coli BL21 derivative with pRARE, purified (Ni-NTA, Superdex 75); not …
Description: fluorescence polarisation; fluoresceinated peptide at 100 nM; FXR1 (stock 1.03 mM) or FXR2 (stock 2.4 mM) in serial twofold dilutions from 1/2 to 1/1024; 20 mM Tris-Cl pH 8.0, 50 mM NaCl, 1 mM DTT; room temperature, 30 minutes. The following applies: both partners purified.

For experiment [2], the target named is T2, FXR2 tandem Tudor domains (amino acids 14 to 137 of Fragile X Mental Retardation Syndrome-related Protein 2) (UniProt P51116 14-137).
T2 construct: Fragile X Mental Retardation Syndrome-related Protein 2 (FXR2), amino acids 14 to 137, tandem Tudor domains; residues 13 to 136 reported for the crystal structure; Cloned in pET-28a-MHL as His6-TEV-FXR2; the purification tag was not removed from FXR2; The methods describe expression in minimal media with selenomethionine; also called FXR2 Tudor domain; NLS of FXR2; source: E. coli BL21 derivative …
The description is as above. The following applies: both partners purified.

Where no end group is shown, it is not given here. Me3 = trimethyl-lysine (Kme3); Me2 = dimethyl-lysine (Kme2)

T2 sequence (P51116 14-137): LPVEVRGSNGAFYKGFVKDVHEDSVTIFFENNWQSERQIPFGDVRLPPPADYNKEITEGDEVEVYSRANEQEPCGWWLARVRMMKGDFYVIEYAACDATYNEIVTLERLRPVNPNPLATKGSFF
T1 sequence (P51114 2-132): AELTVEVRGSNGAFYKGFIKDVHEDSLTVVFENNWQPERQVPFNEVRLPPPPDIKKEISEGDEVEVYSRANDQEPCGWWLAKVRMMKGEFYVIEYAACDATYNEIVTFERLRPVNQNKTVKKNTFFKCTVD

As for `C[C@H](N)C(=O)N[C@@H](CCCNC(=N)N)C(=O)N[C@H](C(=O)N[C@@H](CCCC[N+](C)(C)C)C(=O)N[C@@H](CCC(N)=O)C(=O)N[C@H](C(=O)N[C@@H](C)C(=O)N[C@@H](CCCNC(=N)N)C(=O)N[C@@H](CCCCN)C(=O)N[C@@H](CO)C(=O)N[C@H](C(=O)O)[C@@H](C)O)[C@@H](C)O)[C@@H](C)O` [H3K4me3], the Kd (in general, the free concentration of one partner at which half of the binding sites on the other are occupied at equilibrium, for simple one-to-one binding) at FXR2 Tudor domains is greater than 1 mM.

Regarding `CC(C)C[C@H](NC(=O)[C@@H](NC(=O)[C@H](CCCCN)NC(=O)[C@H](CCCNC(=N)N)NC(=O)[C@H](Cc1c[nH]cn1)NC(=O)[C@H](CCCNC(=N)N)NC(=O)[C@H](CCCCN)NC(=O)[C@H](C)NC(=O)CNC(=O)CN)C(C)C)C(=O)N[C@@H](CCCNC(=N)N)C(=O)N[C@@H](CC(=O)O)C(=O)N[C@@H](CC(N)=O)C(=O)O` [H4K20], the Kd on FXR1 Tudor domains was greater than 1 mM.

B1: H4K20me3 peptide, fluoresceinated (peptide)
peptide: GGAKRHRK(Me3)VLRD
modifications: also: fluorescein, position not given here
notes: histone H4 tail peptide, K20 trimethylated; source: synthetic peptide (Tufts University Core Services)
Take B1: the figures for the Kd in experiment [1] and in experiment [2] were 692 ± 113 µM and 448 ± 19 µM, respectively.

B2: H4K20 peptide (unmethylated histone H4 peptide) (peptide)
peptide: GGAKRHRKVLRDN
modifications: also: fluorescein, position not given here
notes: histone H4 tail peptide around K20, unmethylated; also called H4K20Me0; source: synthetic peptide (Tufts University Core Services)
B2: the Kd in experiment [2] came to 1060 ± 63 µM.

B3: H4K20me2 peptide (peptide)
peptide: GGAKRHRK(Me2)VLRD
notes: histone H4 tail peptide, K20 dimethylated; source: synthetic peptide (Tufts University Core Services)
In experiment [2], B3 returned a Kd of 633 ± 30 µM.

B4: H3K4me3 peptide (peptide)
peptide: ARTK(Me3)QTARKST
modifications: also: fluorescein, position not given here
notes: histone H3 tail peptide, K4 trimethylated; source: synthetic peptide (Tufts University Core Services)
As for B4, the Kd in experiment [1] came out at 660 ± 121 µM.
